The values that follow come from the nanobody polyreactivity screen of Harvey et al. (2022).

The data set in a line: yeast display, Sf9 membrane polyspecificity reagent, FACS + sequencing; frameworks hold sequencing errors. The method, boiled down:
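A synthetic nanobody library was expressed on Saccharomyces cerevisiae BJ5465 by galactose induction for 36–48 hours. The library was stained for 1 hour at 4 °C with 10% biotinylated, detergent-solubilized Sf9 membrane reagent and enriched with streptavidin microbeads before FACS. Low and high (top ~1%) gates were set on anti-HA fluorescence for expression and streptavidin fluorescence for reagent binding, and each polyreactivity label reflects the gate of origin.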
“QVQLVESGGGLVQAGGSLRLSCAASGLIYTPYAMGWYRQAPGKERELVAAINYGGSRTYYADSVKGRFTISRDNAKNTVYLQMNSLKPEDTAVYYCNKPGNYVWRRSWDFDYWGQGTQVTVSS”: the “polyreactivity (PSR sort gate)” value is on record as “high polyreactivity”. Under “QVQLVESGGGLVQAGGSLRLSCAASGLMFTRYAMGWYRQAPGKERELVAAISITGGSTYYADSVKGRFTFSRDNAKNTVYLQMNSLKPEDTAVYYCAAQRQVTTGIYGYWGQGTQVTVSS” stands “high polyreactivity”; under “QVQLVESGGGLVQAGGSLRLSCAASGLNFIRYAMGWYRPAPGKERELVAAISWPGGNTYYADSVKGRFTISRDNAKNTVYLQMISQKPEDTAVYYCAAVGTWQHRSYGYWGQGTQVTVSS”, “high polyreactivity”. To “QVQLVESGGGLVQAGGSLRLSCAASGLNFWYYAMGWYRQAPGKERELVAAISWGGGSTYYADSVKGRFTISRDNAKNTVYLLMNSLKPEDTAVYYCAADSSYWYGTECDYWGQGTQVTVSS” belongs “high polyreactivity”; to “QVQLVESGGGLVQAGGSLRLSCAASGLNFYWYAMGWYRQAPGKERELFAAINWSGGRTHYADSVKGRFTMSRDNANNTVYFQMNCLKPEDTAVYYCAASPYWFTRYYPKTRETMDYWGQGTQVTVST”, “high polyreactivity”; to “QVQLVESGGGLVQAGGSLRLSCAASGLPYAMGWYRQAPGKERELVAAISSSGGSTYYADSVKGRFTISRDNAKNNVYLQMNSLKPEDTAVYYCNRDIGGTSVLDDYWGQGTQVTVSS”, “low polyreactivity”. Consider “QVQLVESGGGLVQAGGSLRLSCAASGLRFNVYAMGWYRQAPGKERELVAAITSGGSTHYADSVKGRFTISRDNAKNTVYLQMNSLKPEDTAVYYCNKELATARGQSLYRTYSGYGYRGQGTQVTVSS”, for which the “polyreactivity (PSR sort gate)” value was “high polyreactivity”.

With “QVQLVESGGGLVQAGGSLRLSCAASGLSFSGNVMGWYRQAPGKERELVAAIDRSGGSTYYADSVKGRFTISRDNAQKTVYLQMNSLKPEDTAVYYCAVSSYPNHSRSWDDYWGQGTQVTVSS”, the “polyreactivity (PSR sort gate)” value is “low polyreactivity”. Under “QVQLVESGGGLVQAGGSLRLSCAASGLSSLRMLWDGRDRRLGKKGSWLPLITSGGDSTNYADSVKGRFTISRDNAKNTVYLQMNSLKPEDTAVYYCAADLDYPYGYWGQGTQVTVSS” stands “low polyreactivity”. Under “QVQLVESGGGLVQAGGSLRLSCAASGLTCSRNAMGWYRQAPGKERELVAAINWSGGSTYYADSVKGRFTISRDNAKNTVYLQMNSLKPEDTAVYYCAAEYAPSPYDWGYEYWGQGTQVTLSS” stands “high polyreactivity”; under “QVQLVESGGGLVQAGGSLRLSCAASGLTFADYAMGWYRKAPGKERELVAAISRRGGSTYYADSVKGRFTISRDNAKNTVYLQMNSLKPEDTAVYYCNAAYVYGDQARGGYWGQGTQVTVSS”, “high polyreactivity”.

Consider “QVQLVESGGGLVQAGGSLRLSCAASGLTFAGYAMGWYRQAPGKERELVASITTSGGSTHNADSVKGRFTISRDNEKNTVYVQMNSLKPEDTAVYYCAAECYPGDTELIGAFDYWGQGTQVTVSS”, for which the “polyreactivity (PSR sort gate)” value is “low polyreactivity”.

Turning to “QVQLVESGGGLVQAGGSLRLSCAASGLTFALYAMGWYRQAPGQERELVAAIDWSGGITYYADSVKGRFTISRDHAKNTVYLQMNSLKPEDTAVYYCAARPSTFKYKYGYWGQGTQVTVSS”, the “polyreactivity (PSR sort gate)” value was “high polyreactivity”. To “QVQLVESGGGLVQAGGSLRLSCAASGLTFANYAMGWYRQAPGKERELVAAISTWSGGSTYYADSVKGRFTISRDNAKNTVYLQMNSLKPEDTAVYYCAARRYSRGRLPYDYGGQGTQVTVSS” belongs “high polyreactivity”. To “QVQLVESGGGLVQAGGSLRLSCAASGLTFARTAKGWYRQAPGKERALVAAISSRGGSTYYADSVKGRFTISRDIANNTVYLQMNSLKPEDTAVYYCATSQVLRRDRYDYWGQGTQVTVSS” belongs “high polyreactivity”.

As for “QVQLVESGGGLVQAGGSLRLSCAASGLTFASNAMGWYRQAPGKERELVAAISWSDGSTYYADSVKGRFTISRDNAKNTVYLQMNSLKPEDTAVYYCAAEPPGFRTSRVGYWGQGTQVTVSS”, the “polyreactivity (PSR sort gate)” value is listed as “low polyreactivity”. Take “QVQLVESGGGLVQAGGSLRLSCAASGLTFASYAMGWYRQAPGKERELVARISRSGGSTYYADSVKGRFTISRDNAKNTVYLQMKSLKPEDTAVYYCAADYIFRRYPVGGIYDYDYWGQGTQVSVSS”: the “polyreactivity (PSR sort gate)” value is “high polyreactivity”. Under “QVQLVESGGGLVQAGGSLRLSCAASGLTFAYNTMGWYRQAPGKEREFVASISSSGGNTYYADAVKGRFTISRDNAKNTVYLQMNSLKPEDTAVYYCAAKKKYHYFASYKRFEYWGQGTQVTVSS” stands “low polyreactivity”; under “QVQLVESGGGLVQAGGSLRLSCAASGLTFAYYAMGWYRQAPGKERELVATISRSGSTYYADSVKGRFTISRDNAKNTVYLQMNSLKPEDTAVDYCATAYHHYVYRQYTFGRGIYDFWGQGTQVTVSS”, “high polyreactivity”. As to “QVQLVESGGGLVQAGGSLRLSCAASGLTFAYYDMGWYRQAPGKERELVAAITSGGTTNYADSVKGRFTISRDNAKNTVYLQMNSLKPEDTAVYYCYADYYSRIVGVRIYDYWGQGTQVTVSS”, the “polyreactivity (PSR sort gate)” value is recorded as “low polyreactivity”. For “QVQLVESGGGLVQAGGSLRLSCAASGLTFDGYAMGWYRQAPGKERELVARITRNGGITYYADSVKGRFTISRDNAKNTVYLQMNSLKPEDTAVYYCAAGQRLWKYYGVIGWTVTNYYYWGQGTQVTVSS”, the “polyreactivity (PSR sort gate)” value is reported as “high polyreactivity”. To “QVQLVESGGGLVQAGGSLRLSCAASGLTFDKYTMGWYRQAPGKERELVARISTSGSRTYYADSVKGRFTISRDNAKNTVYLQMNSLKPEDTAVYYCNKDGWIRRRRGYDYWGQGTQVTVSS” belongs “high polyreactivity”; to “QVQLVESGGGLVQAGGSLRLSCAASGLTFDRYGMGWYRQAPGKERELVAAIDGSGTSTYYADSVKGRFTISRDNAKNTVYLQMNSLKPEDTAVYYCNAYWTYEFPSYDYWGQGTQVTVSS”, “low polyreactivity”. Under “QVQLVESGGGLVQAGGSLRLSCAASGLTFDVYTMGWYRQAPGKETEFVAAITWDGGITYYADSVKGRFTISRDNAKNSVYLQMNSLKPEDTAVYYCAADYALGEVYWYNYWGLGTQVTVSS” stands “low polyreactivity”; under “QVQLVESGGGLVQAGGSLRLSCAASGLTFDYYTMGWYRQAPGNERELVAAINWSGGRTYYADSVKGRFTISRDNAKNTVYLQMNSLKPEDTAVYYCAAETYRRHDYDYWGQGTQVTVSS”, “high polyreactivity”; under “QVQLVESGGGLVQAGGSLRLSCAASGLTFEGNAMGWYRQAPGKERELVAAISRRGGSTYYADSVKGRFTISRHNAKNTVYLQMNSLKPEDSAVYYCAADRQPYTDKYDYWGQGTQVTVSS”, “high polyreactivity”.

“QVQLVESGGGLVQAGGSLRLSCAASGLTFEGYAMGWYRQAPGKERELVAAISSSSGRTYYADSVKGRFTISRDNAKNTVYLQMNSLKPEDTAVYYCAARPGSGRSYTSDYWGQGTQVTVSS”: the “polyreactivity (PSR sort gate)” value was “high polyreactivity”.

“QVQLVESGGGLVQAGGSLRLSCAASGLTFEHNAMGWYRQAPGKEREFVAVISWRGTSTYYADSVKGRFTISRDNAKNTVYLQMNSLKPEDTPVYYCATRYYGDDGYRYDHWGQGTQVTVSS”: the “polyreactivity (PSR sort gate)” value was “high polyreactivity”. On to “QVQLVESGGGLVQAGGSLRLSCAASGLTFERYAMGWYRQAPGKERELVAAISIRGGSTYYADSVKGRFTISRDNAKNTVYLQMNSLKPEDTAVYYCSADGRGREYDYWGQGTQVTVSS”, for which the “polyreactivity (PSR sort gate)” value is “low polyreactivity”. To “QVQLVESGGGLVQAGGSLRLSCAASGLTFEYNAMGWYRQAPGKERELVASISSGGGTNYADSVKGRFTISRDNAKNTVYLQMNSLKPEDTAVYYCATDNYDWSCWAFRGYWYDYWGQGTQVTVSS” belongs “low polyreactivity”.
